Experimental data as given in patent US7531345B2, “Mutations for enhanced tyrosine production” (Massachusetts Institute of Technology, priority 2005, dated 2009).
“And” between values parts separate entries of the source, which are not always exact repeats. Equal values may be shown once.

What was measured:
[1] = tested on: E. coli DH5α; test: Growth of E. coli DH5α strains in the presence of m-fluoro-D,L-tyrosine (OD600); assay type: cell-based, Escherichia coli
Method: The growth in E. coli DH5α strains harboring eight different plasmids are presented: −, pZE21::tyr^WT; +, pZE21::tyrA^fbr-5; ▪, pZE21::tyrA^fbr-7; ▴, pZE21::tyrA^fbr-10; ♦, pZE21::tyrA^fbr-13; ▾, pZE21::tyrA^fbr-15; ? , pZE21::tyrA^fbr-18; ●, pZE21::tyrA^fbr-20. […] E. coli cells were cultivated in MOPS-buffered minimal medium containing m-fluoro-D,L-tyrosine. After incubation at 37° C. at 225 rpm on a rotary shaker for 20 h, the optical density at 600 nm (OD600) was measured.
Nucleotide analogue mutagenesis was carried out in the presence of 2 and 20 μM […] (8-oxo-dGTP) and 6-(2-deoxy-β-D-ribofuranosyl)-3,4-dihydro-8H-pyrimido-[4,5-c][1,2]oxazin-7-one (dPTP) (Zaccolo, M., D. et al. 1996, J. Mol. Biol. 255: 589-603). Using the plasmid pZE21::tyrA^WT as template, 10, 20 and 30 amplification cycles with the primers mentioned above were performed. The 1.1 kbp PCR products were gel-purified, and the mutated tyrA genes were amplified in a second PCR reaction under regular conditions. Subsequently, the gel-purified DNA fragments were pooled, digested with KpnI and MluI, ligated into pZE21-MCS1, and transformed to highly competent E. coli DH5α cells (Invitrogen). Putative tyrA^fbr mutants were selected on minimal medium agar plates with 20 μg/ml kanamycin and 2 mM m-flouro-D,L-tyrosine.
Mutants of the tyrA gene from E. coli K12 were generated by error-prone PCR and cloned into pZE21-MCS1. […] From 621 obtained tyrA^fbr mutants, seven mutants were chosen for detailed analyses.

[2] = tested on: chorismate mutase (CM) activity of TyrA (CM/PDH) protein; test: Chorismate mutase (CM) activity with purified TyrA proteins; assay type: biochemical, Escherichia coli K12
Method: (§1) For high expression levels of the tyrA^fbr genes, the respective pET30::tyrA^fbr plasmids were transformed to E. coli BL21 (DE3) competent cells (Novagen). The cells were cultivated in LB medium plus 20 μg/ml kanamycin and 1 mM isopropyl-β-D-thiogalactoside (IPTG). After reaching an OD600 of ˜1, the cells were collected by centrifugation, resuspended in binding buffer (20 mM Tris/HCl, 0.5 M NaCl, 5 mM imidazole, pH 7.9), and disrupted by sonication with a Branson Sonifier 450. The cell extract was centrifugated at 10,000×g for 15 min, and the supernatant was filtered through a 0.45 μm syringe filter (PALL Gelman Laboratory). The native His6-tagged TyrA protein was purified by pre-charged His-Bind column chromatography according to the manufacturer's protocol (Novagen). The eluated protein solution was desalted by Econo-Paco®10DG columns (Biorad) and concentrated by Centriprep®YM10 centrifugal ultrafiltration devices (Millipore). Expression and purification steps were controlled by SDS-PAGE (Laemmli, U. K. 1970. Nature 227: 680-685). […]
CM activities were determined spectrophotometrically based on the formation of phenylpyruvate by treatment with HCl (Davidson, B. E., and G. S. Hudson. 1987. Methods Enzymol. 142: 440-450). […] The samples were alkalized with 1 ml of 2.5 M NaOH, and the absorbance was measured at 320 nm according to a blank sample without enzyme. […]

[3] = molecular target: prephenate dehydrogenase (PDH) activity of TyrA (CM/PDH) protein (Escherichia coli, UniProt P07023); test: PDH activity measurement with purified TyrA proteins (NADH formation, 340 nm); assay type: biochemical, Escherichia coli K12; settings: 20 μM tyrosine, purified protein (FIG. 2)
Method: as §1
(§2) PDH activities of purified TyrA proteins were determined spectrophotometrically according to NADH formation (Davidson, B. E., and G. S. Hudson. 1987. Methods Enzymol. 142: 440-450). […] The reaction was started by addition of approximately 0.1 μg of enzyme which corresponded to 5-20 μl of enzyme solution, and the absorbance at 340 nm was followed for 2 min. […]

[4] = tested on: prephenate dehydrogenase (PDH) activity of TyrA (CM/PDH) protein; test: as above; assay type: biochemical, Escherichia coli K12; settings: purified His6-tagged TyrA protein, absence of tyrosine
Method: as §1, §2

Chain of prephenate dehydrogenase (PDH) activity of TyrA (CM/PDH) protein (Escherichia coli, UniProt P07023) (P07023 whole entry): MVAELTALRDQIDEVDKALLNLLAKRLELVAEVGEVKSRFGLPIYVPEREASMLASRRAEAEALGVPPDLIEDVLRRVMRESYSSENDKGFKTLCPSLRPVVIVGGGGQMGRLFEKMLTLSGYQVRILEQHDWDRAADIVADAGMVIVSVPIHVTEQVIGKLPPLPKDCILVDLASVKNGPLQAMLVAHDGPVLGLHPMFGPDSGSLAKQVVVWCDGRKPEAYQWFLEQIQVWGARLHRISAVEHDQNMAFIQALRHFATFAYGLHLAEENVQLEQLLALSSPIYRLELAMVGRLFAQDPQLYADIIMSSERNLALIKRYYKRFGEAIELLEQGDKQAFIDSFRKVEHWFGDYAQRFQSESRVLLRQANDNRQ

## NC(Cc1ccc(O)c(F)c1)C(=O)O (racemic) [m-fluoro-D,L-tyrosine]
[1]; E. coli DH5α without plasmid
  concentration of m-fluoro-D,L-tyrosine inhibiting growth: ≥ 0.1 mM
[1]; selection at ≧2 mM m-fluoro-D,L-tyrosine
  effect on growth of E. coli DH5α harboring plasmid pZE21::tyrA^WT: inhibits growth

## N[C@@H](Cc1ccc(O)cc1)C(=O)O [L-tyrosine]
[1]; E. coli DH5α without plasmid, equimolar amounts of L-tyrosine
  effect of L-tyrosine on growth inhibited by m-fluoro-D,L-tyrosine: restored growth

## TyrA^WT: wild-type chorismate mutase/prephenate dehydrogenase (T-protein) of E. coli K12, His6-tagged, purified
[2]; 100 μM tyrosine in the presence of 100 μM NAD+
  CM activity, 100 μM Tyrosine: 1.23 U/mg
[2]; absence of tyrosine
  CM activity, 0 μM Tyrosine: 1.32 U/mg
[3]
  specific PDH activity in the presence of tyrosine, relative to activity in the absence of tyrosine: less than 10%
[4]
  PDH activity, 0 μM Tyrosine: 29.8 U/mg and 29.80 U/mg
